Target: 原核表达的重组人P53蛋白 (recombinant human P53 expressed in E. coli BL21 from PET28a-P53, Ni-NTA purified) (human) (UniProt P04637)
Assay: direct ELISA, purified antibody diluted 1:200 to 1:12800 on plates coated with purified P53 (10 μg/ml), goat anti-mouse IgG-HRP, OD450

Sequence of UniProt P04637 (P04637 whole entry): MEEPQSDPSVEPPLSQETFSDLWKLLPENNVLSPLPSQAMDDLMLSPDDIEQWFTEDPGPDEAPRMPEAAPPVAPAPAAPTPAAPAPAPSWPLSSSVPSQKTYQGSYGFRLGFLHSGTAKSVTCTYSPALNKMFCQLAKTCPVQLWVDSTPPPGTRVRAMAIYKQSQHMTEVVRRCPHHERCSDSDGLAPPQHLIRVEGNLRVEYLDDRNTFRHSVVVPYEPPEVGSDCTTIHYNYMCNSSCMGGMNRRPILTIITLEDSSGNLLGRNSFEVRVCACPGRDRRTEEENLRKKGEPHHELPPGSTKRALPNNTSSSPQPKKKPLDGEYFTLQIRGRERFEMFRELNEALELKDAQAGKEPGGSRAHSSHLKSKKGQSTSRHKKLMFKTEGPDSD

- ELISA titer (滴度) (dilution factor (1:x)): > 10000
B1: 小鼠抗人P53单克隆抗体6C4 (mouse anti-human P53 monoclonal antibody from hybridoma 6C4, CGMCC No. 6916) (antibody, part only; not given: light chain variable region, V domains shown, part only)
VH: DFCWSLSGVGVGCHLVTNSGKGLEWLAHIWWDDDKSYNPALKSRLTISKDTSTNQVFLKIASVDTADTATYYCARMTTATFAYWGQGTLVTVSPASTTPPISQ

Reference: patent CN106754739A
